Data from PMC12924673 (Science (New York, N.Y.), 2024).

Experiments:
[1] = molecular target: recombinant ZnF0 of BCL11A; assay: crystal structure
[2] = molecular target: recombinant ZnF0 of BCL11A; assay: native gel or EMSA
[3] = molecular target: recombinant ZnF0 of BCL11A; assay: AUC
[4] = molecular target: recombinant ZnF0 of BCL11A; assay: dynamic light scattering
[5] = molecular target: the molecule itself; assay: native gel or EMSA

Question: “recombinant ZnF0 of BCL11A (domain or fragment)” was tested. Which stoichiometry N [1] did it give?
Answer: The stoichiometry N was 4.

Question: And the stoichiometry N [2]?
Answer: Its stoichiometry N is 4.

Question: What about the stoichiometry N [3] of the same molecule?
Answer: The stoichiometry N was 4.

Question: And the stoichiometry N [4]?
Answer: Its stoichiometry N is 4.

B1: full-length (FL) BCL11A, recombinant (natural protein, UniProt Q9H165-1 1-835, looked up)
chain: MSRRKQGKPQHLSKREFSPEPLEAILTDDEPDHGPLGAPEGDHDLLTCGQCQMNFPLGDILIFIEHKRKQCNGSLCLEKAVDKPPSPSPIEMKKASNPVEVGIQVTPEDDDCLSTSSRGICPKQEHIADKLLHWRGLSSPRSAHGALIPTPGMSAEYAPQGICKDEPSSYTCTTCKQPFTSAWFLLQHAQNTHGLRIYLESEHGSPLTPRVGIPSGLGAECPSQPPLHGIHIADNNPFNLLRIPGSVSREASGLAEGRFPPTPPLFSPPPRHHLDPHRIERLGAEEMALATHHPSAFDRVLRLNPMAMEPPAMDFSRRLRELAGNTSSPPLSPGRPSPMQRLLQPFQPGSKPPFLATPPLPPLQSAPPPSQPPVKSKSCEFCGKTFKFQSNLVVHRRSHTGEKPYKCNLCDHACTQASKLKRHMKTHMHKSSPMTVKSDDGLSTASSPEPGTSDLVGSASSALKSVVAKFKSENDPNLIPENGDEEEEEDDEEEEEEEEEEEEELTESERVDYGFGLSLEAARHHENSSRGAVVGVGDESRALPDVMQGMVLSSMQHFSEAFHQVLGEKHKRGHLAEAEGHRDTCDEDSVAGESDRIDDGTVNGRGCSPGESASGGLSKKLLLGSPSSLSPFSKRIKLEKEFDLPPAAMPNTENVYSQWLAGYAASRQLKDPFLSFGDSRQSPFASSSEHSSENGSLRFSTPPGELDGGISGRSGTGSGGSTPHISGPGPGRPSSKEGRRSDTCEYCGKVFKNCSNLTVHRRSHTGERPYKCELCNYACAQSSKLTRHMKTHGQVGKDVYKCEICKMPFSVYSTLEKHMKKWHSDRVLNNDIKTE
Question: Does B1 bind [5]?
Answer: Result: binds
